# Measurements as given in publication PMC9765618, “PML Body Component Sp100A Is a Cytosolic Responder to IFN and Activator of Antiviral ISGs” (mBio, 2022).
# Target: T1, bacterially purified His-tagged hemagglutinin (HA)-PKM2 (human, UniProt P14618 1-531)
# T1 construct: pyruvate kinase 2 (PKM2), human; also called His-HA-PKM2
# Experiment: pull-down
# Settings: both partners purified
# T1 sequence (P14618 whole entry): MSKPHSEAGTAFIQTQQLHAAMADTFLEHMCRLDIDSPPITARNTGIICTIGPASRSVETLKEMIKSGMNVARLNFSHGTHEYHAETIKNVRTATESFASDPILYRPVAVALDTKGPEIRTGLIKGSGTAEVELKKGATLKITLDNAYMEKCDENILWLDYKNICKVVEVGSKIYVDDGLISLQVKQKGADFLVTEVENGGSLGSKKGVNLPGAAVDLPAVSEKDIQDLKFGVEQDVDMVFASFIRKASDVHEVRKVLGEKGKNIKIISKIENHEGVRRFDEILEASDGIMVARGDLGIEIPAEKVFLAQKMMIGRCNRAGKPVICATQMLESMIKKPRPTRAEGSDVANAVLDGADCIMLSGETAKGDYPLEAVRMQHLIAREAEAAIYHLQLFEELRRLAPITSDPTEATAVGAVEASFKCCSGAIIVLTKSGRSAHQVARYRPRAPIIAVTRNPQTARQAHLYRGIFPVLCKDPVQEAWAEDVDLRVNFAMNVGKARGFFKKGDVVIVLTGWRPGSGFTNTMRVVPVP
binder,measurement,value
"bacterially purified GST-tagged Sp100A (natural protein, Sp100A, isoform A of human Sp100; also called GST-Sp100A) not shown",binding result,binds
